One molecule from publication PMC7611331 (Nature microbiology, 2019) can be followed below.

The experiment addresses T1, native FtsZ (Streptococcus pneumoniae R800, UniProt A0A0H2ZNE0 1-419).
T1 sequence (looked up): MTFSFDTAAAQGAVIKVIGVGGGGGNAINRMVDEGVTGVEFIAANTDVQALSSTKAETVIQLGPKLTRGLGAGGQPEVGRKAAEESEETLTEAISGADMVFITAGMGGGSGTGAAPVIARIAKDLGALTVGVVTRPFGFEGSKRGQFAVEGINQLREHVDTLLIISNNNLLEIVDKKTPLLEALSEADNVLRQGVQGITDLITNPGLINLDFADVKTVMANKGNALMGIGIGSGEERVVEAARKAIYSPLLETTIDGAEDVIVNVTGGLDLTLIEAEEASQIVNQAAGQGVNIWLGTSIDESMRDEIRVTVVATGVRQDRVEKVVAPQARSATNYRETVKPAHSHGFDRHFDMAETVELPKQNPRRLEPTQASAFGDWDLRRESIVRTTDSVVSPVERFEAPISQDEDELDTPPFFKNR
Nature of the experiment: MST.

B1: RocS-ΔAH-6His (domain or fragment, Streptococcus pneumoniae R800, UniProt Q8DQ15 1-150, looked up)
chain: MSIEMTVSEIAEVLGLSRQAINNRVKELPEEDTDKNDKGVTVVTRSGLIKLEEIYKKTIFEDEPVSEDVKQRELMEILVDEKNAEILRLYEQLKAKDRQLSEKDEQMRIKDRQIAEKDKQLDQQQQLTLQAMKDQENLKLELDQAKEEVQ
modifications: labeled with the red dye NT-647
Take B1: the binding result is listed as “binds”.
